Experimental data as given in patent publication US20200147177A1, “INTERLEUKIN 12 (IL12) OR DERIVATIVE THEREOF FOR USE IN THE TREATMENT OF SECONDARY DISEASE” (priority 2017, published 2020).

Tests used:
Escherichia coli = assay: Secondary E. coli pneumonia in infection-cured mice, c.f.u. in bronchoalveolar lavage; assay type: in vivo; conditions: IL-12 100 ng i.p. concurrent with induction of secondary pneumonia; c.f.u. from BAL 16 hours after E. coli; FIG. 4g
[1] = system: lung DC, macrophages and NK cells; assay: Intracellular staining of DC, macrophages and lymphocytes for cytokines during secondary pneumonia; assay type: in vivo, mice; conditions: IL-12 100 ng i.p.; secondary pneumonia 7 days after primary E. coli pneumonia; FIG. 11e
Protocol: For intracellular staining of cytokines in DC or lymphocytes, cell suspensions were obtained by mechanical and collagenase digestion of lungs collected 16 hours after injection of E. coli. Cells were cultured 4 hours in complete media with Golgi Plug, washed twice and then stained for surface markers. Fixation and permeabilization was performed following manufacturer instructions (BD Cytofix/Cytoperm kit, BD Bioscience). Anti-cytokine antibody was incubated overnight at 4° C. Cells were washed twice before FACS analysis.
Mice were treated with IL-12 (100 ng i.p., Abcam) concomitantly to the induction of the secondary pneumonia. Anti-TGFβ monoclonal antibody (1B11, 44 μg i.p. every 3 days) or isotype control IgG1 monoclonal antibody (MG1-45, Biolegend) injections were performed 3 and 6 days after primary pneumonia. TGF-β (1 μg i.p., Thermofisher) was injected once 6 days after primary pneumonia in DT-treated CD11c-DTR chimeric mice

NK cells = assay: Functional assay of NK cells in PBMC treated or not overnight with IL12; assay type: cell-based, human; conditions: PBMC of traumatic-brain injured patients day 1 and day 7 and healthy controls; overnight IL-12; 5-hours functional assay; FIG. 18
Excerpt: (i) spontaneous lysis with and without O/N treatment with IL-12 of PBMC of traumatic-brain injured patients on days 1 (d1) (n=5) and day 7(d7) (n=5) and healthy controls (HC) (n=5) and (ii) reverse ADCC with and without O/N treatment with IL-12 of PBMC of TBI on days 1 (n=6) and 7 (n=6) and HC (n=4)
EDTA-anticoagulated blood samples were withdrawn seven days after primary infection in septic patients (IBIS sepsis), or at day 1 and day 7 ICU admission in trauma patients. Peripheral blood mononuclear cells (PBMCs) were isolated by centrifugation, frozen in liquid nitrogen in a 10% DMSO solution and stored until analysis.

E. coli, S. aureus = assay: Bacterial pneumonia in mice cured from infection or from trauma-hemorrhage (FIG. 17); assay type: in vivo

B1: IL-12: heterodimeric cytokine encoded by IL-12A (p35) and IL-12B (p40); Abcam, 100 ng i.p. (protein, UniProt P43431 23-215; P43432 23-335, looked up)
Interleukin-12 subunit alpha: RVIPVSGPARCLSQSRNLLKTTDDMVKTAREKLKHYSCTAEDIDHEDITRDQTSTLKTCLPLELHKNESCLATRETSSTTRGSCLPPQKTSLMMTLCLGSIYEDLKMYQTEFQAINAALQNHNHQQIILDKGMLVAIDELMQSLNHNGETLRQKPPVGEADPYRVKMKLCILLHAFSTRVVTINRVMGYLSSA
Interleukin-12 subunit beta: MWELEKDVYVVEVDWTPDAPGETVNLTCDTPEEDDITWTSDQRHGVIGSGKTLTITVKEFLDAGQYTCHKGGETLSHSHLLLHKKENGIWSTEILKNFKNKTFLKCEAPNYSGRFTCSWLVQRNMDLKFNIKSSSSSPDSRAVTCGMASLSAEKVTLDQRDYEKYSVSCQEDVTCPTAEETLPIELALEARQQNKYENYSTSFFIRDIIKPDPPKNLQMKPLKNSQVEVSWEYPDSWSTPHSYFSLKFFVRIQRKKEKMKETEEGCNQKGAFLVEKTSTEVQCKGGNVCVQAQDRYYNSSCSKWACVPCRVRS
bacterial clearance during secondary pneumonia (Escherichia coli): enhanced bacterial clearance
IFN-γ production by NK cells during secondary pneumonia [1]: restored
responsiveness of NK cells to IL-12 (IFNγ+ CD107a+ NK cells) (NK cells): remain responsive
clinical recovery during bacterial pneumonia (E. coli, S. aureus): enhances clinical recovery
innate immune response during bacterial pneumonia (E. coli, S. aureus): restores innate immune response
